Test results taken from US20190367631A1 (Regeneron, published 2019).

T1: mouse MSR1 on RAW264.7 cells (mouse, UniProt P30204 1-458)
T1 construct: whole, on cells; also called MSR1 positive RAW264.7 cells
T1 sequence (looked up): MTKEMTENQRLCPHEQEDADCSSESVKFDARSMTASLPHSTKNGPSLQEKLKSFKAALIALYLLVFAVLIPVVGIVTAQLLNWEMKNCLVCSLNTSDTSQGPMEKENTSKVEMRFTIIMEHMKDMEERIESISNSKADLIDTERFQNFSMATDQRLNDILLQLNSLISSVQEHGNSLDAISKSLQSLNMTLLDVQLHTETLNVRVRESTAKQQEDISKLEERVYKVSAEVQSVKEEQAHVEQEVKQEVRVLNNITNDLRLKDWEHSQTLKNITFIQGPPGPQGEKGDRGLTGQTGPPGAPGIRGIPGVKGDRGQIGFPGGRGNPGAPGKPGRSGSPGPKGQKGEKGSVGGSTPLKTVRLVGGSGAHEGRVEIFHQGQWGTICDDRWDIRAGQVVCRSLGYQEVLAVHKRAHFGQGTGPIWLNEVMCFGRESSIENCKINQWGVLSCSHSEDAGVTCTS

T2: human MSR1 extracellular domain expressed with a N-terminal nonahistidine tag (His9-hMSR1); R&D Systems, Cat … (human, UniProt P21757 77-451)
T2 construct: extracellular domain; Bought reagent; also called His-hMSR1; 9xHis-hMSR1
T2 sequence: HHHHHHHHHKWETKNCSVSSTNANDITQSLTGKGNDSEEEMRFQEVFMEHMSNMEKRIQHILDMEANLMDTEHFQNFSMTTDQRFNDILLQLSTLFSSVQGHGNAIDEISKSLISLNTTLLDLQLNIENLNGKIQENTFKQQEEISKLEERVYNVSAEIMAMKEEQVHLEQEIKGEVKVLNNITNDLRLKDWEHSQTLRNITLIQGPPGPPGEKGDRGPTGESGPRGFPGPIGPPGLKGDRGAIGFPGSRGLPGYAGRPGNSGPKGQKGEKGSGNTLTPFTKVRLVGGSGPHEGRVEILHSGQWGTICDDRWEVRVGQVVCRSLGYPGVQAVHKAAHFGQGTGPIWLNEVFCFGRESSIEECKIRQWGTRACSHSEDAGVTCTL

T3: full length human MSR1 with a C-terminal Myc tag, on HEK293.Myc.hMSR1 cells (human, UniProt P21757 1-451)
T3 sequence (looked up): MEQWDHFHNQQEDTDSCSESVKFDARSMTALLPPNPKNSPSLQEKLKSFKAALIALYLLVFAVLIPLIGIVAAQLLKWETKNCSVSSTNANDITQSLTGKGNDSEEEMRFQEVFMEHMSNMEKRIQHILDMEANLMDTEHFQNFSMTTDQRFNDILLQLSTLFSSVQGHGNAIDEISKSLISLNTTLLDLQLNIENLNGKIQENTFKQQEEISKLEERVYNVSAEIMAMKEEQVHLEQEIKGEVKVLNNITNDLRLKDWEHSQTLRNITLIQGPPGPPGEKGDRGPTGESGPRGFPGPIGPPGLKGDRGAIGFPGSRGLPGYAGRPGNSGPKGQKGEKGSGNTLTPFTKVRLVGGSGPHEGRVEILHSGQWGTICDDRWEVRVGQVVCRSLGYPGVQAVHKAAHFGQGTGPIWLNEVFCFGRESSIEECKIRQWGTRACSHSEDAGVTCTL

B1: H1H27771P2-N297Q (antibody, human IgG1, V domains shown)
VH: EVQLVESGGGLVQPGGSLRLSCAASGFTFSSYGMNWVRQAPGKGLEWVSVISGSGGSTYYADSVKGRFTISRDNSKNTLYLQMNSLRAEDTAVYYCAKDRWTYYYDSSGSPFDYWGQGTLVTVSS
VL: not shown
notes: human IgG1 Fc with N297Q; also called H1H27771P-N297Q
B2: H1H27731P-N297Q-LP1 (antibody, V domains shown)
VH: QLQLQESGPGLVKPSETLSLTCTVSGGSISRISYYWGWIRQPPGKGLEWIGSIYDSGSTYYNPSLKSRVTISIDTSKNQFSLKLSSVTAADTAVYYCVRYSSSSAFAFDYWGQGTLVTVSS
VL: DIQMTQSPSSVSASVGDRVTITCRASQGISSWLAWYQQKPGKAPKLLIYAASSLQSGVPSRFSGSGSGTDFTLTISSLQPEDFATYYCQQANSFPFTFGPGTKVDIKR
modifications: LXR agonist linker-payload LP1 clicked to azido-PEG3-amine on Q295 and Q297 (EU) of the heavy chain constant region
notes: antibody-drug conjugate; human IgG1 Fc with N297Q (EU); also called H1H27731P-LP1
B3: H1H27754P-N297Q-LP1 (antibody, human IgG1, V domains shown)
VH: EVQLVESGGGLVQPGGSLRLSCAASGFTFRTYAMTWVRQAPGKGLDWVSAITGDGGNTYYADSVKGRFTISRDNSKNTLYLQMNSLRAEDTAIYYCAKDQRFSFALYYFDYWGQGTLVTVSS
VL: DIQMTQSPSSVSASVGDRVTITCRASQGISSWLAWYQQKPGNAPKLLIYAAFSLQSGVPSRFSGSGSGTDFTLTISSLQPEDFATYYCQQANNFPWTFGQGTKVEIKR
modifications: LXR agonist linker-payload LP1 clicked to azido-PEG3-amine on Q295 and Q297 (EU) of the heavy chain constant region
notes: antibody-drug conjugate; human IgG1 Fc with N297Q (EU); also called H1H27754P-LP1
B4: H1H27754P-N297Q (antibody, human IgG1, V domains shown)
VH: EVQLVESGGGLVQPGGSLRLSCAASGFTFRTYAMTWVRQAPGKGLDWVSAITGDGGNTYYADSVKGRFTISRDNSKNTLYLQMNSLRAEDTAIYYCAKDQRFSFALYYFDYWGQGTLVTVSS
VL: DIQMTQSPSSVSASVGDRVTITCRASQGISSWLAWYQQKPGNAPKLLIYAAFSLQSGVPSRFSGSGSGTDFTLTISSLQPEDFATYYCQQANNFPWTFGQGTKVEIKR
notes: human IgG1 Fc with N297Q
B5: H1H27754P-N297Q (antibody, human IgG1, V domains shown)
VH: EVQLVESGGGLVQPGGSLRLSCAASGFTFRTYAMTWVRQAPGKGLDWVSAITGDGGNTYYADSVKGRFTISRDNSKNTLYLQMNSLRAEDTAIYYCAKDQRFSFALYYFDYWGQGTLVTVSS
VL: DIQMTQSPSSVSASVGDRVTITCRASQGISSWLAWYQQKPGNAPKLLIYAAFSLQSGVPSRFSGSGSGTDFTLTISSLQPEDFATYYCQQANNFPWTFGQGTKVEIKR
notes: human IgG1 Fc with N297Q (EU)
B6: H1H27773P2-N297Q (antibody, human IgG1, V domains shown)
VH: EVQLVESGGGLVQPGGSLRLSCAASGFTFSSYAMNWVRQAPGKGLEWVSAISGSGDSTYYADSVKGRFTISRDNSRTTLSLQLNSLRAEDTAVYYCAKDRLLWFGELGSPFHYWGQGTLVTVSS
VL: not shown
notes: human IgG1 Fc with N297Q; also called H1H27773P-N297Q
B7: H1H27766P-N297Q (antibody, human IgG1, V domains shown)
VH: EVQLVESGGGLVQPGGSLRLSCAASGFTFSSFAMSWVRQAPGKELEWVSSISGRGGSTYYADSVRGRFTISRDNSKITLYLQMNSLRAEDTAVYYCAKDIVFRYTSSAYWYFDLWGRGTLVTVSS
VL: not shown
notes: human IgG1 Fc with N297Q (EU); also called H1H27766P2-N297Q
B8: H1H27756P-N297Q (antibody, human IgG1, V domains shown)
VH: QVQLVESGGGVVQPGRSLRLSCAASGFTFSNYDMHWVRQAPGKGLEWMAVISYDGINKYYADSVKGRFTISRDNSKNTLYLQMNSLRAEDTAVYYCAKGTYSWYFDLWGRGTLVTVSS
VL: not shown
notes: human IgG1 Fc with N297Q

Tests used:
[1] = molecular target: T1, mouse MSR1 on RAW264.7 cells; assay: flow cytometry, RAW264.7 cells
Description: To block binding to Fc receptors, RAW264.7 cells were incubated for 30 minutes at 4° C. with 500 pg/mL mouse IgG (Jackson ImmunoResearch, Cat #015-000-003) diluted in staining buffer, while B16F10.9 cells remained in staining buffer. […] The signal to noise (S/N) was determined by calculating the ratio of the anti-MSR1 antibodies or the control antibodies MFI to the unstained sample MFI (Table 11).

[2] = molecular target: T2, human MSR1 extracellular domain …; assay: SPR Biacore T200, 25 C, antibody captured by anti-human Fc, His9-hMSR1 injected;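 further: running buffer HBS-ET pH 7.4, rates from sensorgrams fitted to a 1:1 model including mass transport limitation, KD and half-life derived from the kinetic constants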
[3] = molecular target: T2, human MSR1 extracellular domain …; assay: SPR Biacore T200, 25 C, antibody captured by anti-human Fc, His9-hMSR1 injected; no dissociation seen, kd fixed at 1.00E-05;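 on kon: running buffer HBS-ET pH 7.4, rates from sensorgrams fitted to a 1:1 model including mass transport limitation, KD and half-life derived from the kinetic constants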
Description: All binding studies were performed in 10 mM HEPES, 300 mM NaCl, 3 mM EDTA, and 0.05% v/v Surfactant Tween-20, pH 7.4 (HBS-ET) running buffer at 25° C.
The association rate (kₐ) and dissociation rate (kd) were determined by fitting the real-time binding sensorgrams to a 1:1 binding model with mass transport limitation using Scrubber 2.0c curve-fitting software. Binding dissociation equilibrium constant (KD) and dissociative half-life (t½) were calculated from the kinetic rates as:

[4] = molecular target: T3, full length human MSR1 with a …; assay: cell-based or functional assay
Wherever % Inhibition of Dil-Acetylated LDL uptake is given: test concentration or dose not given here.
Wherever % Inhibition of Dil-Oxidized LDL uptake is given: test concentration or dose not given here.

Row | Binder | S/N (MFI over unstained MFI) [1] | kon [2] [M⁻¹ s⁻¹] | Kd [3] [nM] | koff [3] [s⁻¹] | t½ [3] [h] | further results
1 | B1 | 1 | – | – | – | – | –
2 | B2 | – | 128000 | ≤ 0.078 | ≤ 1e-05 | ≥ 19.3 | –
3 | B3 | – | 177000 | ≤ 0.0564 | ≤ 1e-05 | ≥ 19.3 | –
4 | B4 | 1 | – | – | – | – | MFI [1]: 5410 MFI
5 | B5 | – | 200000 | ≤ 0.0499 | ≤ 1e-05 | ≥ 19.3 | –
6 | B6 | 1 | – | – | – | – | –
7 | B7 | – | 172000 | ≤ 0.0583 | ≤ 1e-05 | ≥ 19.3 | –
8 | B8 | 1 | – | – | – | – | % Inhibition of Dil-Acetylated LDL uptake [4]: 42%; % Inhibition of Dil-Oxidized LDL uptake [4]: 76%; IC50 of Dil-Acetylated LDL uptake inhibition [4]: > 100 nM; MFI [1]: 4570 MFI
